Measured values published in patent publication US20240109974A1 (SHANDONG SIMCERE BIOPHARMACEUTICAL, published 2024).
Changes are numbered by the printed parent chain. One block for each binder: values may come before it.

Tests used:
[1] = target: T1, Cynomolgus TNFR2-His (Sino 90102-C08H) (cynomolgus monkey, UniProt A0A2K5VET2 132-366); assay: ELISA, cynomolgus TNFR2-His coated; EC50 against 219-WT
T1 construct: Bought protein; also called cynomolgus monkey TNFR2; recombinant cynomolgus monkey TNFR2 protein; not shown: His tag
T1 sequence: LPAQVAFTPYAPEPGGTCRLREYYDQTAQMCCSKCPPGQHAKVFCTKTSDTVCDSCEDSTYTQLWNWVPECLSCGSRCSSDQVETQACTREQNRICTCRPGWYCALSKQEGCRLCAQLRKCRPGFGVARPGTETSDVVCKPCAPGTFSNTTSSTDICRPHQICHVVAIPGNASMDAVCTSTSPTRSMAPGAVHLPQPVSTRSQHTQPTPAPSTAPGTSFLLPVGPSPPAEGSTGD
Experimental: (§1) The test humanized antibody against TNFR2 (as described in Example 1, the antibody was comprised of variable regions linked to IgG-Fc; the WT chimeric antibody also adopted the IgG-Fc structure) was subjected to 3.33-fold gradient dilution, loaded with 100 μl/well, and incubated with shaking at room temperature for 1.5 hours. The plate was washed, and then a working solution of murine anti-human IgG Fc-HRP (diluted at 1:10000) was added, loaded with 100 μl/well, and incubated with shaking at room temperature for 1.0 hour. The plate was washed again, and then the substrate TMB of HRP was added to develop colour. A stop solution was added to stop the reaction, and then a microplate reader (MD 13) was used to read the absorbance value. The binding curve of an antibody was drawn with antibody concentration as the abscissa and corresponding OD value as the ordinate, and fitted with four parameters (GraphPad Prism9) to calculate the EC50 value. The smaller the EC50 value, the stronger the binding ability of an antibody to human/cynomolgus monkey TNFR2. The binding effect of a humanized antibody was normalized to its corresponding human-murine chimeric antibody WT (see SEQ ID NOs: 38-43 for the sequence). The higher the percentage value, the better the binding effect of the humanized antibody. The results of binding of an anti-TNFR2 antibody to a human TNFR2 protein are shown in FIG. 1 and Table 4, and the results of binding of an anti-TNFR2 antibody to cynomolgus monkey TNFR2 are shown in FIG. 2 and Table 4.

[2] = target: T2, human TNFR2 (Novoprotein, Cat #C830) (human, UniProt P20333 23-257, limits assumed); assay: competition ELISA, competitor human TNFα-Biotin; AUC against 219-WT
T2 construct: construct not described; also called human TNFR2 protein
T2 sequence (looked up): T1 sequence with G16S, P36S, Q117P, H164N, A210E, G216S, V223M
Experimental: (§2) 1 μg/ml human TNFR2 (Novoprotein, Cat #C830) was pre-coated with 100 μl/well […] in an ELISA plate. All the test TNFR2 antibodies were subjected to 2.5-fold gradient dilution from the highest concentration of 30 μg/ml; the diluted antibodies were mixed with 15 ng/ml human TNFα-Biotin (Acro Biosystem, Cat #TNA-H82E3) in equal volume, respectively; the resulting mixture was added to the ELISA plate at 100 μl/well, and incubated with shaking at room temperature for 2.0 hours. The plate was washed, and then a Streptavidin-HRP working solution (diluted at 1:10000) was added at 100 μl/well, and the mixture was incubated with shaking at room temperature for 40 minutes. The plate was washed again, and then the substrate TMB of HRP was added to develop colour. A stop solution was added to stop the reaction, and then a microplate reader (MD 13) was used to read the absorbance value. The inhibitory curve of an antibody was drawn with antibody concentration as the abscissa and corresponding OD value as the ordinate, and fitted with four parameters (GraphPad Prism9) to calculate the IC50 value. The smaller the IC50 value, the stronger the ability of an antibody to inhibit the binding of human TNFα to human TNFR2. The blocking effect of a humanized antibody was normalized to its corresponding human-murine chimeric antibody WT. The higher the percentage value, the better the inhibitory effect of the humanized antibody.

[3] = target: T2, human TNFR2 (Novoprotein, Cat #C830); assay: competition ELISA, competitor human TNFα-Biotin; IC50 against 219-WT
Experimental: as §2

[4] = target: T1, Cynomolgus TNFR2-His (Sino 90102-C08H); assay: ELISA, cynomolgus TNFR2-His coated; EC50 against 001-WT
Experimental: as §1

[5] = target: T2, human TNFR2 (Novoprotein, Cat #C830); assay: competition ELISA, competitor human TNFα-Biotin; IC50 against 001-WT
Experimental: as §2

- % Relative activity (WT antibody/test antibody) [1]: 77.5%
- % Relative activity (WT antibody/test antibody) [2]: 105%
- % Relative activity (WT antibody/test antibody) [3]: 128%
B4: 219-Hu1 (antibody, V domains shown)
VH: QVQLVQSGAEVKKPGASVKVSCKASGYSFTNYWMNWVRQAPGQRLEWMGMIHPSDTETRLNQNFKDRVTITRDTSASTAYMELSSLRSEDTAVYYCARGEGLGAARSVSMDYWGQGTLVTVSS
VL: DIQMTQSPSSLSASVGDRVTITCRASQDISNYLNWYQQKPDGTVKLLIYYTAILHSGVPSRFSGSGSGTDYSLTISSLQPEDFATYFCQQGNTLPWTFGQGTKVEIK
notes: also called VH3 + VL5

- % Relative activity (WT antibody/test antibody) [1]: 93.4%
- % Relative activity (WT antibody/test antibody) [2]: 106%
- % Relative activity (WT antibody/test antibody) [3]: 136%
B5: 219-Hu5 (antibody, V domains shown)
VH: B4 VH with A16S, R44G, R72V, T74K, A76T
VL: B4 VL
notes: also called VH7 + VL5

- % Relative activity (WT antibody/test antibody) [4]: 106%
- % Relative activity (WT antibody/test antibody) [5]: 105%
B7: 001-Hu4 (antibody, V domains shown)
VH: EVQLVESGGGLVQPGGSLRLSCAASGFAFSTYDLSWVRQAPGKGLEWVAYINNGGISTYYSDTVKGRFTISRDNAKNSLYLQMNSLRAEDTAVYYCVRGPFYGSANYFDYWGQGTLVTVSS
VL: DIQMTQSPSSLSASVGDRVTITCRTSESIYSNLPWYQQKPGKSPKLLVYDATKLAEGVPSRFSGSGSGTDYTLTISSLQPEDFATYYCQHFWVTPWTFGQGTKVEIK
notes: Humanized form of #001; also called VH2 + VL4

- % Relative activity (WT antibody/test antibody) [4]: 108%
- % Relative activity (WT antibody/test antibody) [5]: 94.7%
B9: 001-Hu1 (antibody, V domains shown)
VH: B7 VH with S78T
VL: B7 VL with S43A, V48L
notes: Humanized form of #001; also called VH1 + VL1

The next lines start with the binder.

B1: 219-Hu3 (antibody, V domains shown)
VH: B4 VH with A16S, R44G, R72A, T74K, A76T
VL: B4 VL
notes: also called VH5 + VL5
- % Relative activity (WT antibody/test antibody) [1]: 90.4%
- % Relative activity (WT antibody/test antibody) [2]: 103%
- % Relative activity (WT antibody/test antibody) [3]: 111%

B2: 219-Hu4 (antibody, V domains shown)
VH: B4 VH with A16S, R38K, R44G, M48I, R67K, V68A, I70L, R72V, T74K, A76T
VL: B4 VL
notes: also called VH6 + VL5
- % Relative activity (WT antibody/test antibody) [1]: 93.1%
- % Relative activity (WT antibody/test antibody) [2]: 105%
- % Relative activity (WT antibody/test antibody) [3]: 126%

B3: 219-Hu2 (antibody, V domains shown)
VH: B4 VH with A16S, R44G, R67K, V68A, R72A, T74K, A76T
VL: B4 VL
notes: also called VH4 + VL5
- % Relative activity (WT antibody/test antibody) [1]: 102%
- % Relative activity (WT antibody/test antibody) [2]: 104%
- % Relative activity (WT antibody/test antibody) [3]: 120%

B6: 001-Hu5 (antibody, V domains shown)
VH: B7 VH with S78T
VL: B7 VL
notes: Humanized form of #001; also called VH1 + VL4
- % Relative activity (WT antibody/test antibody) [4]: 105%
- % Relative activity (WT antibody/test antibody) [5]: 96.5%

B8: 001-Hu2 (antibody, V domains shown)
VH: B7 VH
VL: B7 VL with V48I, Y71F
notes: Humanized form of #001; also called VH2 + VL2
- % Relative activity (WT antibody/test antibody) [4]: 107%
- % Relative activity (WT antibody/test antibody) [5]: 82.8%

B10: 001-Hu3 (antibody, V domains shown)
VH: B7 VH with S78T
VL: B7 VL with S43A, V48I
notes: Humanized form of #001; also called VH1 + VL3
- % Relative activity (WT antibody/test antibody) [4]: 105%
- % Relative activity (WT antibody/test antibody) [5]: 105%
